Results: publication PMC9034101, “Enzymatic analysis of WWP2 E3 ubiquitin ligase using protein microarrays identifies autophagy-related substrates” (The Journal of Biological Chemistry, 2022)

Target: T1, WWP2 WT (human, UniProt O00308 1-870)
T1 construct: called the ~100 kDa WWP2 protein; Unlabelled WWP2 titrated in the fluorescence anisotropy assays; also called WT WWP2; source: E. coli (BL-21 (DE3) Codon+ or BL21 Rosetta (DE3) pLysS), purified (glutathione agarose, GST removed, size exclusion)
T1 sequence (O00308 whole entry): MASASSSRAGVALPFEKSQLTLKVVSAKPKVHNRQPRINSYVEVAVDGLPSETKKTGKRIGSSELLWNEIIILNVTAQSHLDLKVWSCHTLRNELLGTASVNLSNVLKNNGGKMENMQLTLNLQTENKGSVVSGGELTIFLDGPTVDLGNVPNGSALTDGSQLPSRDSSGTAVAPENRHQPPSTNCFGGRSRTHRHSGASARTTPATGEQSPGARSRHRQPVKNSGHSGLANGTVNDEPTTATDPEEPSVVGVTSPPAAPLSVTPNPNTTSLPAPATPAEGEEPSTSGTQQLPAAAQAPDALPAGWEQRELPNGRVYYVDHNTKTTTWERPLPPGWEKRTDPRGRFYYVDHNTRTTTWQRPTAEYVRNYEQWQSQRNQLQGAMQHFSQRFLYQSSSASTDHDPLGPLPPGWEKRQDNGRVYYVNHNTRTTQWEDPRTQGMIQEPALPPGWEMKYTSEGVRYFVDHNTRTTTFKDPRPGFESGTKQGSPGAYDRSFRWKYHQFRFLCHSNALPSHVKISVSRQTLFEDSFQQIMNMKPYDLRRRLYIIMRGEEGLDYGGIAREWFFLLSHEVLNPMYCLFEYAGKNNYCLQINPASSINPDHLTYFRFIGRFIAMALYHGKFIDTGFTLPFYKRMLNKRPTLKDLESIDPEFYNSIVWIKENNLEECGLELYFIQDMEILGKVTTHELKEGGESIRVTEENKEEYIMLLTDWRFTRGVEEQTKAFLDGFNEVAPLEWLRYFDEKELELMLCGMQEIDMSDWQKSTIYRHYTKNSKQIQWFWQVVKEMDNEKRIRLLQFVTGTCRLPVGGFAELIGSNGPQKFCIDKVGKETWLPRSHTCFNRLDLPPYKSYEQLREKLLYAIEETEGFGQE
Assay: fluorescence polarisation; fluorescence anisotropy; 100 nM fluorescein-labeled WBP2, WWP2 titrated; 23 °C; quadratic binding fit
Details: both partners purified

B1: Fluorescein N-terminal-labeled WBP2 (aa. 149-261) (domain or fragment, human, UniProt Q969T9 149-261, looked up)
chain: PSGAYVYPPPVANGMYPCPPGYPYPPPPPEFYPGPPMMDGAMGYVQPPPPPYPGPMEPPVSGPDVPSTPAAEAKAAEAAASAYYNPGNPHNVYMPTSQPPPPPYYPPEDKKTQ
modifications: fluorescein (5/6-carboxyfluorescein, FAM) on the N-terminus
notes: WBP2, human, aa; 149-261, from pET28b-WBP2; Labelled 'with a similar procedure as that used for WWP2' (N-terminal Cys after protease cleavage), so an N-terminal Cys and loss of the tag may apply; also called FAM labeled WBP2; fluorescein-labeled WBP2; source: E. coli Rosetta pLysS, purified (Ni-NTA, Superdex 75), fluorescein labelled
In the case of B1, the Kd is reported as 3.7 µM.
